Experimental data from article PMC5548745, “Agonist-induced dimer dissociation as a macromolecular step in G protein-coupled receptor signaling” (Nature Communications, 2017).
“Also recorded” adds a separate entry of the source.

Experiments:
[1] = test system: ERK1/2 phosphorylation in HEK293 cells; test: P-ERK1/2 immunoblot, HEK293 cells expressing SNAP-FZD6 constructs; format: cell-based
Experimental: Fig. 6 Relationship between FZD6 dimerization and phosphorylation of ERK1/2. a Mouse lung epithelial (MLE-12) cells were stimulated with WNT-5A (300 ng ml^−1) for 0, 2.5, 5, 10, 20 min. Cell lysates were analyzed for P-ERK1/2 and β-actin by immunoblotting. Additional information in Supplementary Fig. 6. b Bar graph summarizes three independent experiments. Densitometry data were normalized to the unstimulated control. […] Additional information in Supplementary Fig. 6. SNAP-FZD6 wt- and SNAP-FZD6 dimer mutant-induced ERK1/2 phosphorylation in the absence e and presence f of the porcupine inhibitor C59 (5 µM, overnight) were probed by immunoblotting for the SNAP-tag, P-ERK1/2, total ERK1/2 and β-actin. g The bar graph summarizes densitometry data of P-ERK1/2 normalized to total ERK1/2 from 6 different experiments. P = 0.0005; F (2, 15) = 13.08. ***P < 0.001. Empty vector transfection was used as mock. h Increasing amounts of plasmid of either SNAP-FZD6 wt or SNAP-FZD6 dimer mutant in the presence of C59 show a dose-dependent increase in P-ERK1/2 only with the dimer mutant. Data from three independent experiments for the dimer mutant were fit to a linear least-squares model (slope = 0.40 ± 0.10; R ^2 = 0.5943) and this line is shown superimposed. […] This dissociation-dependent activation can be evoked by agonist (WNT^high) or mutation of the dimer interface (symbolized by red stars). WNT^low conditions can be achieved in the presence of C59, which reduces FZD6 wt signaling
MLE-12 or HEK293 cells (ATCC) were plated in a 24- or 48-well plate at a density of 100,000 or 50,000 cells/well, respectively. After 24 h, cells were transfected using Lipofectamine 2000 according to the manufacturer’s instructions. Cells were stimulated (24 h post-transfection) with 300 ng ml^−1 recombinant carrier-free WNT-5A (CF WNT-5A; R&D Systems). Stimulation was stopped by the addition of lysis buffer (1% NP-40, 150 mM NaCl, 50 mM Tris/HCl pH 8). Lysates were sonicated and analyzed by 7.5 or 10% Mini-PROTEAN TGX precast polyacrylamide gels (Bio-Rad) and transferred to PVDF membranes using the Trans-Blot Turbo system (Bio-Rad). After blocking with 5% milk or BSA in TBS-T, membranes were incubated with primary antibodies in blocking buffer: mouse anti-β-actin (1:30,000; Sigma #A5441), rabbit anti-FZD6 (1:1000; NovusBio #NBP1-00830), rabbit anti-Phospho-p44/42 MAPK (ERK1/2) (Thr202/Tyr204) (1:1000; Cell Signaling Technology #9101 L), rabbit anti-p44/42 MAPK (ERK1/2) (1:1000; Cell Signaling Technology #9102), rabbit anti-Phospho-C-RAF (Ser338) (1:1000; Cell Signaling Technology #56A6), rabbit anti-SNAP tag (1:1000, New England Biolabs #P9310S), and rabbit anti-HA (1:4000, abcam #ab9110) overnight at 4 °C. Proteins were detected with horseradish peroxidase-conjugated secondary antibodies (goat anti-rabbit and goat anti-mouse (Pierce)) and Clarity Western ECL Blotting Substrate (Bio-Rad). All uncropped immunoblots can be found in the Supplementary Information.

porcupine = settings: cited from earlier work
[2] = test system: SNAP-β2-adrenergic receptor; test: SNAP-β2-AR internalization by confocal microscopy; format: cell-based; settings: HEK293; isoproterenol 10 µM, 15 min
Experimental: SNAP-FZD6 and SNAP-β2-AR were imaged in living cells using a Zeiss LSM710 equipped with a 40×, 1.2 NA C-Apochromat objective. The cell-impermeable SNAP substrate SNAP-Surface 549 (New England Biolabs) was added (1:1000, 15 min), washed twice in BE buffer and imaged using the 561 nm laser line. SNAP-FZD6 and SNAP-β2-AR were stimulated with 300 ng ml^−1 WNT-5A and 10 µM isoproterenol, respectively, and fluorescence was monitored over time.

FZD6–FZD6 dimer = test: dcFRAP of V5-FZD6-mCherry/FZD6-GFP (FZD6 dimerization); format: cell-based, human; settings: HEK293; GFP-tagged mutant with wt V5-FZD6-mCherry; anti-V5/avidin crosslinking
In short: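 Live cells co-expressing V5-FZD6-mCherry and FZD6-GFP, surface V5 tag crosslinked with biotin-anti-V5 plus avidin in BE buffer at RT. Membrane areas photobleached, recovery imaged (488/561 nm) over 100 s; mobile fraction from background/bleach-corrected, pre-bleach-normalized intensity at 85-101 s. Cells with <40% crosslink-induced mobility reduction excluded.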

DVL2-GFP = test: dcFRAP with chemical surface crosslinking, FZD6 dimer mutant/DVL2-GFP; format: cell-based; settings: inactive state
Experimental: For dual color FRAP experiments, cells grown in four compartment 35 mm glass bottom dishes were washed three times with BE buffer[19] (150 mM NaCl, 2.5 mM KCl, 10 mM HEPES, 12 mM glucose, 0.5 mM CaCl2, and 0.5 mM MgCl2). Then, the cells were incubated at RT for 30 min with biotin-conjugated goat polyclonal anti-V5 antibody (Bethyl) diluted 1:100 in BE buffer supplemented with 2.5% bovine serum albumin. For antibody-mediated cross-linking, avidin was added and incubated for 15 min and washed two times with BE buffer before the experiments were performed. […] Fluorescence was measured pre- and post-bleach using low-intensity illumination for a total time period of 100 s. Average pixel intensity was measured using the ZEN2013 software, corrected for background fluctuations and bleaching artifacts and normalized to pre-bleached intensity. The recovered mobile fraction (F m) was calculated as follows: F m = (I P–I 0)/(I I–I 0), where I I is the initial intensity measured prior to bleaching, I 0 is the immediate fluorescence intensity post-bleaching and I P is intensity value post-bleaching. The mobile fraction was defined by the average of the fluorescence recovery assessed between time 85–101 s (including pre-bleach measurements). […]

[3] = test system: subcellular localization in HEK293 cells; test: co-localization of FZD6-R511C with FZD6 constructs; format: cell-based, human; settings: FZD6-R511C with FZD6-mCherry, or FZD6 dimer mutant with FZD6-R511C
Gαi1-GFP = settings: cited from earlier work

Cc1cc(-c2ccc(CC(=O)Nc3ccc(-c4cccnc4)cc3)cc2)ccn1 [C59, 2-[4-(2-Methylpyridin-4-yl)phenyl]-N-[4-(pyridin-3-yl)phenyl]acetamide]
effect of C59 on FZD6 wt-induced P-ERK1/2 ([1]; HEK293, C59 5 µM overnight): reduced to basal
effect on endogenous WNT secretion (porcupine): blocks secretion of WNT proteins; also recorded: abrogates endogenous WNT secretion

CC(C)NCC(O)c1ccc(O)c(O)c1 (centres unmarked) [isoproterenol]
internalization of SNAP-β2-adrenergic receptor [2]: appearance of numerous endosome-like structures after 15 min

B1: FZD6 dimer mutant: D365A, R368A, Y369A triple mutant of FZD6 (protein)
chain: HSLFTCEPITVPRCMKMAYNMTFFPNLMGHYDQSIAAVEMEHFLPLANLECSPNIETFLCKAFVPTCIEQIHVVPPCRKLCEKVYSDCKKLIDTFGIRWPEELECDRLQYCDETVPVTFDPHTEFLGPQKKTEQVQRDIGFWCPRHLKTSGGQGYKFLGIDQCAPPCPNMYFKSDELEFAKSFIGTVSIFCLCATLFTFLTFLIDVRRFRYPERPIIYYSVCYSIVSLMYFIGFLLGDSTACNKADEKLELGDTVVLGSQNKACTVLFMLLYFFTMAGTVWWVILTITWFLAAGRKWSCEAIEQKAVWFHAVAWGTPGFLTVMLLAMNKVEGDNISGVCFVGLYDLAASAAFVLLPLCLCVFVGLSLLLAGIISLNHVRQVIQHDGRNQEKLKKFMIRIGVFSGLYLVPLVTLLGCYVYEQVNRITWEITWVSDHCRQYHIPCPYQAKAKARPELALFMIKYLMTLIVGISAVFWVGSKKTCTEWAGFFKRNRKRDPISESRRVLQESCEFFLKHNSKVKHKKKHYKPSSHKLKVISKSMGTSTGATANHGTSAVAITSHDYLGQETLTEIQTSPETSMREVKADGASTPRLREQDCGEPASPAASISRLSGEQVDGKGQAGSVSESARSEGRISPKSDITDTGLAQSNNLQVPSSSEPSSLKGSTSLLVHPVSGVRKEQGGGCHSDT
modifications: left off: GFP, C-terminal, kept
dimerization by CL-induced decrease of mobile fraction (FZD6–FZD6 dimer): did not result in a decrease of the mobile fraction of FZD6-GFP
P-ERK1/2 induction in presence of C59 ([1]; HEK293, C59 5 µM overnight): maintained its ability to induce ERK1/2 phosphorylation
slope of P-ERK1/2 vs plasmid amount ([1]; HEK293, C59, linear least-squares, R^2 = 0.5943, three independent experiments): 0.40 ± 0.10
effect of overexpression on basal P-ERK1/2 without C59 ([1]; serum-starved HEK293, no C59): increased basal P-ERK1/2
assembly with DVL (DVL2-GFP): retained the ability to interact with the scaffold protein DVL
subcellular localization on co-expression [3]: maintained cell surface localization

B2: FZD6-R511C: DVL-biased FZD6 nail dysplasia mutant (protein, UniProt O60353 19-706, looked up, variant R511C)
Frizzled-6: HSLFTCEPITVPRCMKMAYNMTFFPNLMGHYDQSIAAVEMEHFLPLANLECSPNIETFLCKAFVPTCIEQIHVVPPCRKLCEKVYSDCKKLIDTFGIRWPEELECDRLQYCDETVPVTFDPHTEFLGPQKKTEQVQRDIGFWCPRHLKTSGGQGYKFLGIDQCAPPCPNMYFKSDELEFAKSFIGTVSIFCLCATLFTFLTFLIDVRRFRYPERPIIYYSVCYSIVSLMYFIGFLLGDSTACNKADEKLELGDTVVLGSQNKACTVLFMLLYFFTMAGTVWWVILTITWFLAAGRKWSCEAIEQKAVWFHAVAWGTPGFLTVMLLAMNKVEGDNISGVCFVGLYDLDASRYFVLLPLCLCVFVGLSLLLAGIISLNHVRQVIQHDGRNQEKLKKFMIRIGVFSGLYLVPLVTLLGCYVYEQVNRITWEITWVSDHCRQYHIPCPYQAKAKARPELALFMIKYLMTLIVGISAVFWVGSKKTCTEWAGFFKRNCKRDPISESRRVLQESCEFFLKHNSKVKHKKKHYKPSSHKLKVISKSMGTSTGATANHGTSAVAITSHDYLGQETLTEIQTSPETSMREVKADGASTPRLREQDCGEPASPAASISRLSGEQVDGKGQAGSVSESARSEGRISPKSDITDTGLAQSNNLQVPSSSEPSSLKGSTSLLVHPVSGVRKEQGGGCHSDT
modifications: GFP or mCherry tag
notes: DVL-biased FZD6 nail dysplasia mutant
subcellular localization on co-expression [3]: predominant intracellular localization of both constructs
assembly with Gαi1/Gαq proteins (Gαi1-GFP): does not assemble with Gαi1/Gαq proteins
